In article PMC11947305 (Nature Communications, 2025):

T1: GST-tagged human HPS4 (residues 1-708) (human, UniProt Q9NQG7 1-708)
T1 sequence: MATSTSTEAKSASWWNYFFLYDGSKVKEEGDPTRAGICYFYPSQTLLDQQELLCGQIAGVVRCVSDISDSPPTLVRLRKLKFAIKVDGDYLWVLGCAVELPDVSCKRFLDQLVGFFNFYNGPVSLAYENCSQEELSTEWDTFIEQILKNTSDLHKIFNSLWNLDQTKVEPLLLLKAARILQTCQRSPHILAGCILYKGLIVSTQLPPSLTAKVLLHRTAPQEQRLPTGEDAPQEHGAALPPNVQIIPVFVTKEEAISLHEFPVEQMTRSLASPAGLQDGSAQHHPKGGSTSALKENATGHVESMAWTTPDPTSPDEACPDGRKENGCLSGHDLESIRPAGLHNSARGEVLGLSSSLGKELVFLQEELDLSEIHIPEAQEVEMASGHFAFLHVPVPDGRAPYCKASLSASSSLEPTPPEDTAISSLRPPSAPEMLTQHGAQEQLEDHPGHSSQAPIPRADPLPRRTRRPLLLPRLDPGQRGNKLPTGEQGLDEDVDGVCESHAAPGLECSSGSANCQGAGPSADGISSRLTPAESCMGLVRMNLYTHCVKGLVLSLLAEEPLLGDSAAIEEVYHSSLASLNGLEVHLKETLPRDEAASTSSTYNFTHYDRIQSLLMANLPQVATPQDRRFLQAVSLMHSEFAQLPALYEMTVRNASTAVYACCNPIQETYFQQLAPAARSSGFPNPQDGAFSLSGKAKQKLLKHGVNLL

T2: Flag-tagged HPS4 wild-type (human, UniProt Q9NQG7 1-708)
T2 sequence: T1 sequence

B1: HPS1 (untagged human HPS1, residues 1-700) (natural protein)
chain: MKCVLVATEGAEVLFYWTDQEFEESLRLKFGQSENEEEELPALEDQLSTLLAPVIISSMTMLEKLSDTYTCFSTENGNFLYVLHLFGECLFIAINGDHTESEGDLRRKLYVLKYLFEVHFGLVTVDGHLIRKELRPPDLAQRVQLWEHFQSLLWTYSRLREQEQCFAVEALERLIHPQLCELCIEALERHVIQAVNTSPERGGEEALHAFLLVHSKLLAFYSSHSASSLRPADLLALILLVQDLYPSESTAEDDIQPSPRRARSSQNIPVQQAWSPHSTGPTGGSSAETETDSFSLPEEYFTPAPSPGDQSSGSTIWLEGGTPPMDALQIAEDTLQTLVPHCPVPSGPRRIFLDANVKESYCPLVPHTMYCLPLWQGINLVLLTRSPSAPLALVLSQLMDGFSMLEKKLKEGPEPGASLRSQPLVGDLRQRMDKFVKNRGAQEIQSTWLEFKAKAFSKSEPGSSWELLQACGKLKRQLCAIYRLNFLTTAPSRGGPHLPQHLQDQVQRLMREKLTDWKDFLLVKSRRNITMVSYLEDFPGLVHFIYVDRTTGQMVAPSLNCSQKTSSELGKGPLAAFVKTKVWSLIQLARRYLQKGYTTLLFQEGDFYCSYFLWFENDMGYKLQMIEVPVLSDDSVPIGMLGGDYYRKLLRYYSKNRPTEAVRCYELLALHLSVIPTDLLVQQAGQLARRLWEASRIPLL
B2: His-tagged mouse Rab9A Q66L (residues 2-199) (natural protein)
chain: AGKSSLFKIILLGDGGVGKSSLMNRYVTNKFDSQLFHTIGVEFLNKDLEVDGHFVTMQIWDTAGLERFRSLRTPFYRGSDCCLLTFSVDDSQSFQNLSNWKKEFIYYADVKEPESFPFVILGNKTDIKERQVSTEEAQAWCKDNGDYPYFETSAKDSTNVAAAFEEAVRRILATEDRSEHLIQTDTVNLHRKPKPNSS
B3: GST-tagged human HPS4 Δ289-518 (natural protein)
chain: MATSTSTEAKSASWWNYFFLYDGSKVKEEGDPTRAGICYFYPSQTLLDQQELLCGQIAGVVRCVSDISDSPPTLVRLRKLKFAIKVDGDYLWVLGCAVELPDVSCKRFLDQLVGFFNFYNGPVSLAYENCSQEELSTEWDTFIEQILKNTSDLHKIFNSLWNLDQTKVEPLLLLKAARILQTCQRSPHILAGCILYKGLIVSTQLPPSLTAKVLLHRTAPQEQRLPTGEDAPQEHGAALPPNVQIIPVFVTKEEAISLHEFPVEQMTRSLASPAGLQDGSAQHHPKGGGPSADGISSRLTPAESCMGLVRMNLYTHCVKGLVLSLLAEEPLLGDSAAIEEVYHSSLASLNGLEVHLKETLPRDEAASTSSTYNFTHYDRIQSLLMANLPQVATPQDRRFLQAVSLMHSEFAQLPALYEMTVRNASTAVYACCNPIQETYFQQLAPAARSSGFPNPQDGAFSLSGKAKQKLLKHGVNLL

Legend:
[1] = molecular target: T1, GST-tagged human HPS4 (residues 1-708); assay: SEC
[2] = molecular target: B3; assay: SEC
[3] = molecular target: T2, Flag-tagged HPS4 wild-type; assay: pull-down
[4] = molecular target: B1; assay: cryo-EM structure

Binder: B1
binding result [1]: binds
stoichiometry N [2]: 1

Binder: B2
binding result [3]: binds

Binder: B3
binding result [4]: binds
